Measurements: patent US20260209320A1 (ALCHEMAB THERAPEUTICS, published 2026)
Substitutions are numbered along the chain they refer to.

T1: Murine HTT antigen (murine)
T1 construct: antigen of the murine HTT direct ELISA; also called murine HTT protein
T1 chain: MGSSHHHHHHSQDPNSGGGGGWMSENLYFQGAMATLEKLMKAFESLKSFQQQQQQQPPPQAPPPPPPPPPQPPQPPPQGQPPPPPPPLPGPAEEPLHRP

T2: human lysozyme (human, UniProt P61626 19-148)
T2 sequence (looked up): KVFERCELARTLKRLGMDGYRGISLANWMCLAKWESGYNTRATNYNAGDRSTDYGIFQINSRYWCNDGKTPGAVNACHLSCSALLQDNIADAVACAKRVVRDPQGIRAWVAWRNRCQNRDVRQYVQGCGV

B1: ATL_0005895 (antibody, V domains shown)
VH: EVQLVESGGGLVKPGGSLRLSCAASGFTFNKAWMSWVRQAPGKGLEWVGRIKSGIDAGTTDYAAPVKGRFTISRDDSKNTLYLQMNSLKTEDTAVYYCIPPPYYYYYGLDVWGQGTTVTVSS
VL: QSALTQPRSVSGSPGQSVTISCTGTSSDVGSYNLVSWYQQHPGKAPKLMIYEVNKRPSGVPDRFSGSKSGATASLTISGLQAEDEADYYCGSYAGTANVFGTGTKVTVL
notes: human IgG1; also called ATL_5895; ATL5895
B2: ATL_0005567 (antibody, V domains shown)
VH: B1 VH with S35N, A57G, K67Q, L81V, K89N
VL: QSALTQPASVSGSPGQSITISCTGTSSDIGSYNLVSWYQQHPGNAPKPLIYEGSKRPSGVSARFSGSKSGNTASLTISGLQPEDEADYYCSSYAGFSTLVFGGGTKVTVL
notes: human IgG1; also called ATL_5567; ATL5567
B3: ATL_0005901 (antibody, V domains shown)
VH: B1 VH with N79A
VL: QSALTQPASVSGSPGQSITISCTGTSSDVGGYKLVSWYQQHPGRAPKLMIYEVSKRPSGVSSRFSGSKSGSTASLTISGLQAEDEADYYCSSYAGSSVVFGGGTKLTVL
notes: human IgG1; also called ATL_5901; ATL5901
B4: ATL_0005059/NI-302.8F1 (antibody, V domains shown)
VH: EVQLVESGGGLVKPGGSLTISCAASGFTFSNAWMNWVRQAPGKGLEWVGHIRTQAEGGTSDYAAPVKGRFTISRDDSKNTLYLQMNSLKTEDTAVYYCIPPPYYYYYGLDVWGQGTTVTVSS
VL: QSALTQPASVSGSPGQSITISCTGASSDVGTYDLVSWYQQHPGKAPKLIIYEVNKRPSGVSYRFSASKSANTASLTISGLQAEDEAEYYCCSYAGYSTVFGGGTKLTVL
notes: also called ATL_5059; CA_0000274

How the values were obtained:
[1] = target: T3, Mutant Human HTT Exon 1 48Q (GST) (human); experiment: HTT sandwich ELISA, average of repeats
T3 construct: recombinant His- and GST-tagged fusion; also called HTT Exon 1 Q48; 48Q HTT Exon-1

[2] = target: T3, Mutant Human HTT Exon 1 48Q (GST); experiment: HTT sandwich ELISA, biological repeat 1
Murine HTT antigen = target: T1, Murine HTT antigen; experiment: direct ELISA on coated murine HTT antigen
[3] = target: T4, WT Human HTT Exon 1 25Q (GST) (human); experiment: HTT sandwich ELISA, average of repeats
T4 construct: recombinant His- and GST-tagged fusion; also called Wild type Huntingtin (HTT) exon 1

[4] = target: T3, Mutant Human HTT Exon 1 48Q (GST); experiment: HTT sandwich ELISA, biological repeat 3
CACNA1A = target: T5, CACNA1A (human, UniProt O00555 1-2506); experiment: Retrogenix cell microarray, HEK293 cells
T5 construct: whole, on cells; also called Another poly Q protein

[5] = target: T3, Mutant Human HTT Exon 1 48Q (GST); experiment: HTT sandwich ELISA, biological repeat 2
human lysozyme = target: T2, human lysozyme; experiment: direct ELISA
[6] = target: T4, WT Human HTT Exon 1 25Q (GST); experiment: HTT sandwich ELISA, biological repeat 2
[7] = target: T4, WT Human HTT Exon 1 25Q (GST); experiment: HTT sandwich ELISA, biological repeat 3
[8] = target: T3, Mutant Human HTT Exon 1 48Q (GST); experiment: HTT sandwich ELISA; EC50 on HTT Exon 1 25Q over EC50 on HTT Exon 1 48Q
[9] = target: T4, WT Human HTT Exon 1 25Q (GST); experiment: HTT sandwich ELISA, biological repeat 1
[10] = target: T4, WT Human HTT Exon 1 25Q (GST); experiment: HTT sandwich ELISA, average (one repeat assessed)

T3 sequence (chain, as listed by the source mutant limits assumed): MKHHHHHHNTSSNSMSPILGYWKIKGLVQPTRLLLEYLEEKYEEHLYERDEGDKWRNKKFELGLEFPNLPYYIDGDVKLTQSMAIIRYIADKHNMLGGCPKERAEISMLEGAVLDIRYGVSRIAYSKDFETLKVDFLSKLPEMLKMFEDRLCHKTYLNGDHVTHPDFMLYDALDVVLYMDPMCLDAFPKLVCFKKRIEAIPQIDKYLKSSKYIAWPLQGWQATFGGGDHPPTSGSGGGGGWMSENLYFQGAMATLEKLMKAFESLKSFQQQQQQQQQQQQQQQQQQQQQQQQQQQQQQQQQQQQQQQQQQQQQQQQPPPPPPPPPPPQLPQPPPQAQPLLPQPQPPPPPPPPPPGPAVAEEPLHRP
T4 sequence (chain, as listed by the source limits assumed, change not shown): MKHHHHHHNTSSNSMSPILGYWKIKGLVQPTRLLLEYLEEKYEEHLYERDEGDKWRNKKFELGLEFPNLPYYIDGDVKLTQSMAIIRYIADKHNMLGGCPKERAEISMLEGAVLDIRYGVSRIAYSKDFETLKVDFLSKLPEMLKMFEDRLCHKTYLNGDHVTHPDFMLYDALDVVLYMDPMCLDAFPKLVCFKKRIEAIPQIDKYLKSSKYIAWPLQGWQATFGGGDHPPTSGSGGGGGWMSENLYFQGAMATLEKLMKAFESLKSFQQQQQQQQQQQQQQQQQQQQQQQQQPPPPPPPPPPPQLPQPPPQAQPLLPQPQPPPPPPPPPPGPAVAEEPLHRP
T5 sequence (O00555 whole entry): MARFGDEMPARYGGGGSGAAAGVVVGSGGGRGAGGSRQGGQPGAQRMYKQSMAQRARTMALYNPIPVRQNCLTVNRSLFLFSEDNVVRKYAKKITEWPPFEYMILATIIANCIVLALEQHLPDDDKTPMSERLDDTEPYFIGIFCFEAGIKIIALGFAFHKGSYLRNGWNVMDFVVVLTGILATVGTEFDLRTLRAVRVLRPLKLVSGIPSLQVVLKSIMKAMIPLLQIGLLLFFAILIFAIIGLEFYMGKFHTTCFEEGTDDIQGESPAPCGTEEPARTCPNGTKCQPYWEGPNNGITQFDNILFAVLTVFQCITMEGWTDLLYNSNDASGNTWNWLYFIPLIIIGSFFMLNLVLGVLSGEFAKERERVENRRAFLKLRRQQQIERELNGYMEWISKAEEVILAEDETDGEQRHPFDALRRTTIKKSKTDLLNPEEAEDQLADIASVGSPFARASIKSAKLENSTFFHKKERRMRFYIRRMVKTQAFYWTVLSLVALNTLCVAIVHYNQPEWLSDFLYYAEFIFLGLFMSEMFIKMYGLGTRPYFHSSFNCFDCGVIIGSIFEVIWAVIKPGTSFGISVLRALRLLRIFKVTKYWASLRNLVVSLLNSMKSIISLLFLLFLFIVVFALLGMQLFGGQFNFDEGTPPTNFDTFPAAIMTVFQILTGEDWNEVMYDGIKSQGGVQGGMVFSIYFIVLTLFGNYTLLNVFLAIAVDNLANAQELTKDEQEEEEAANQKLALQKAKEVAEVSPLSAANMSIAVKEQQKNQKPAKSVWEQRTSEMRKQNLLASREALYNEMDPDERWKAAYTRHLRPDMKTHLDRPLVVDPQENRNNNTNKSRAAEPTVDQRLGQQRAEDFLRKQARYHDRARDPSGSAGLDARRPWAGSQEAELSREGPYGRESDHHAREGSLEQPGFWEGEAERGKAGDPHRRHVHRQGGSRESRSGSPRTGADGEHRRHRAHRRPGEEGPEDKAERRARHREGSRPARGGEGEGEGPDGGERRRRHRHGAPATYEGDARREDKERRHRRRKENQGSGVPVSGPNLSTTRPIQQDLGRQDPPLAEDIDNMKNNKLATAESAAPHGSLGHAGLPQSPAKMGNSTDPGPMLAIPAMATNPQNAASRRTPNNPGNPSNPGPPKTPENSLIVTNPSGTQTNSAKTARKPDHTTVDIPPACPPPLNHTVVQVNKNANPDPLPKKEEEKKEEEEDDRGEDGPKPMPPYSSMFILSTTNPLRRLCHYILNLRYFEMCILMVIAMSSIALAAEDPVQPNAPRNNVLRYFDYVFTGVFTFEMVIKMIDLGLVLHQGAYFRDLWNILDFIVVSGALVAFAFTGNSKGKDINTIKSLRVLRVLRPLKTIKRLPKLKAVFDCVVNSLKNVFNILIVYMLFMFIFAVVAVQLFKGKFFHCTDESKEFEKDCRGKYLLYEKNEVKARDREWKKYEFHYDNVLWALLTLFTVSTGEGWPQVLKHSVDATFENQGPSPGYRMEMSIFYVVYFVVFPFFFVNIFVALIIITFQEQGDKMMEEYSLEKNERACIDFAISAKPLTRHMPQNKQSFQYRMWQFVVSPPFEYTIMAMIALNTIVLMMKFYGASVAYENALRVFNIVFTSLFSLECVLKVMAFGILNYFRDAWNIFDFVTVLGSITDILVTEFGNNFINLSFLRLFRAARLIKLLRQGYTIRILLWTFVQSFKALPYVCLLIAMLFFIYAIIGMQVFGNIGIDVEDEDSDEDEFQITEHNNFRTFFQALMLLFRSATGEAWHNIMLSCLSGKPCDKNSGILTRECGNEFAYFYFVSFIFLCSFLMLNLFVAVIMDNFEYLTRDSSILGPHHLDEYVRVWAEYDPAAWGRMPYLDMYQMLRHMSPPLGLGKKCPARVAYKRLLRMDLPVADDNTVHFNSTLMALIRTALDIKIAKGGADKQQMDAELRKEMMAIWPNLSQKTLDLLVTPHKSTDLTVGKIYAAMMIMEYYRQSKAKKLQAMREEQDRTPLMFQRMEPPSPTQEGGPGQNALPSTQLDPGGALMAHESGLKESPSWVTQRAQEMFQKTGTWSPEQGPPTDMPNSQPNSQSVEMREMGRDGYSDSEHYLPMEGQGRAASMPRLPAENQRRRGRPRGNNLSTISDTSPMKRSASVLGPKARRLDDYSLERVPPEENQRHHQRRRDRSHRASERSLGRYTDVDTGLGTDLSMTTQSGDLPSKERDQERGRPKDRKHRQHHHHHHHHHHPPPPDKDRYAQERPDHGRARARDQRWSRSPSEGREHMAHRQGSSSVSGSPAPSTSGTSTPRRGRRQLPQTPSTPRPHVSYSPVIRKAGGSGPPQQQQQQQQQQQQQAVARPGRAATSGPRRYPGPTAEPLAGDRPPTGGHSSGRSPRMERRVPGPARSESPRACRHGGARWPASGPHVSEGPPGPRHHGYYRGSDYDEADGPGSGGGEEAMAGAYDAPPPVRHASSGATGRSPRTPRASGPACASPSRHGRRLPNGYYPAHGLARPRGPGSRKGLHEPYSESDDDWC

Binder | EC50 [1] [nM] | EC50 [2] [nM] | binding result (Murine HTT antigen) | EC50 [3] [nM] | EC50 [4] [nM] | binding result (CACNA1A) | EC50 [5] [nM] | binding result (human lysozyme) | EC50 [6] [nM] | EC50 [7] [nM] | Ratio of EC50 for 25Q:48Q HTT Exon 1 [8] | EC50 [9] [nM] | EC50 [10] [nM]
B1 | 2.08 | 0.731 | binds | 3.71 | 3.2 | no binding (tested: 2 µg/mL antibody) | 3.83 | no binding (tested: less than 1 µM) | 3.91 | 4.39 | 1.79 | 2.97 | 
B2 | 6.39 | 8.7 |  | 7.57 | 4.59 | no binding (tested: 5 µg/mL antibody) | 6.55 |  | 9.63 | 5.95 | 1.18 |  | 
B3 | 2.4 | 1.25 |  | 4.92 | 4.59 |  |  |  | 4.52 | 4.73 | 2.05 | 5.59 | 
B4 | 17.3 | 18.1 |  |  | 17.5 |  | 16.2 |  | 19.3 |  | 1.12 |  | 19.3
